The record followed here is PMC4993999, “Asymmetry in inward- and outward-affinity constant of transport explain unidirectional lysine flux in Saccharomyces cerevisiae” (Scientific Reports, 2016).

Substrate in series [1]: NCCCC[C@H](N)C(=O)O
In words: purified protein. To be noted: PMF-driven: ΔΨ -84 mV, ZΔpH -84 mV, external pH 6.0, internal pH 7.3, 30 °C, labelled compound.

Substrate in series [2]: NCCCC[C@H](N)C(=O)O
In words: purified protein. The class given is biochemical, Saccharomyces cerevisiae. To be noted: PMF-driven: ΔΨ -84 mV, ZΔpH -84 mV, external pH 6.0, internal pH 7.3, 30 °C, labelled compound, high-affinity component (out-to-in) of hyperbola plus linear fit.

Substrate in series [3]: NCCCC[C@H](N)C(=O)O
In words: cells, lysate or membranes. It counts as cell-based, Saccharomyces cerevisiae. To be noted: whole cells 22∆6AAL, 100 mM potassium phosphate, 10 mM glucose, pH 6.0, 30 °C, labelled compound.

B1: LysP (Salmonella enterica subsp. enterica serovar Typhimurium str. LT2) (protein)
chain: MGSKTKTTEAPALRRELKARHLTMIAIGGSIGTGLFVASGATISQAGPGGALFSYILIGLMVYFLMTSLGELAAYMPVSGSFATYGQNYVEEGFGFALGWNYWYNWAVTIAVDLVAAQLVMGWWFPDTPGWIWSALFLCVIFLLNYISVRGFGEAEYWFSLIKVATVIIFIIVGVAMIIGIFKGVEPVGWSNWTTGDAPFAGGFAAMIGVAMIVGFSFQGTELIGIAAGESENPEKNIPRAVRQVFWRILLFYVFAILIISLIIPYTDPNLLRNDVKDISVSPFTLVFQHAGLLSAAAIMNAVILTAVLSAGNSGMYASTRMLYTLACDGKAPRIFAKLSRGGVPRNALYATTVIAGLCFLTSMFGNQTVYLWLLNTSGMTGFIAWLGIAISHYRFRRGYVLQGYDVNDLPYRSGFFPLGPIFAFVLCLIITLGQNYEAFLKDTIDWGGVAATYIGIPLFLLIWFGYKLIKGTHFVRYSEMHFPERVKK
As to B1, the Km in series [1] was 1.5 ± 0.2 µM.

B2: Lyp1-GFP (Lyp1-TEV-GFP-His10) (Saccharomyces cerevisiae S288C) (protein)
chain: MGRFSNIITSNKWDEKQNNIGEQSMQELPEDQIEHEMEAIDPSNKTTPYSIDEKQYNTKKKHGSLQGGAIADVNSITNSLTRLQVVSHETDINEDEEEAHYEDKHVKRALKQRHIGMIALGGTIGTGLFVGISTPLSNAGPVGSLIAYIFMGTIVYFVTQSLGEMATFIPVTSSITVFSKRFLSPAFGVSNGYMYWFNWAITYAVEVSVIGQVIEYWTDKVPLAAWIAIFWVIITLMNFFPVKVYGEFEFWVASVKVLAIMGYLIYALIIVCGGSHQGPIGFRYWRNPGAWGPGIISSDKSEGRFLGWVSSLINAAFTYQGTELVGITAGEAANPRKTVPRAINKVVFRIVLFYIMSLFFIGLLVPYNDSRLSASSAVIASSPFVISIQNAGTYALPDIFNAVVLITVVSAANSNVYVGSRVLYSLARTGNAPKQFGYVTRQGVPYLGVVCTAALGLLAFLVVNNNANTAFNWLINISTLAGLCAWLFISLAHIRFMQALKHRGISRDDLPFKAKLMPYGAYYAAFFVTVIIFIQGFQAFCPFKVSEFFTSYISLILLAVVFIGCQIYYKCRFIWKLEDIDIDSDRREIEAIIWEDDEPKNLWEKFWAAVA
notes: full length, C-terminal TEV-GFP-His10 kept; expressed in Pichia pastoris SMD1163; purified and reconstituted in yeast/E. coli lipid vesicles
B2: the Km in series [2] was 20 ± 14 µM.

B3: Lyp1-YPet (Saccharomyces cerevisiae S288C) (protein)
chain: MGRFSNIITSNKWDEKQNNIGEQSMQELPEDQIEHEMEAIDPSNKTTPYSIDEKQYNTKKKHGSLQGGAIADVNSITNSLTRLQVVSHETDINEDEEEAHYEDKHVKRALKQRHIGMIALGGTIGTGLFVGISTPLSNAGPVGSLIAYIFMGTIVYFVTQSLGEMATFIPVTSSITVFSKRFLSPAFGVSNGYMYWFNWAITYAVEVSVIGQVIEYWTDKVPLAAWIAIFWVIITLMNFFPVKVYGEFEFWVASVKVLAIMGYLIYALIIVCGGSHQGPIGFRYWRNPGAWGPGIISSDKSEGRFLGWVSSLINAAFTYQGTELVGITAGEAANPRKTVPRAINKVVFRIVLFYIMSLFFIGLLVPYNDSRLSASSAVIASSPFVISIQNAGTYALPDIFNAVVLITVVSAANSNVYVGSRVLYSLARTGNAPKQFGYVTRQGVPYLGVVCTAALGLLAFLVVNNNANTAFNWLINISTLAGLCAWLFISLAHIRFMQALKHRGISRDDLPFKAKLMPYGAYYAAFFVTVIIFIQGFQAFCPFKVSEFFTSYISLILLAVVFIGCQIYYKCRFIWKLEDIDIDSDRREIEAIIWEDDEPKNLWEKFWAAVA
notes: full length, C-terminal TEV-YPet-His8 kept; expressed from plasmid under native LYP1 promoter in S. cerevisiae 22∆6AAL
For B3, the Km in series [3] was 10 ± 0.8 µM.

By Km is commonly meant the concentration of substrate that gives half-maximal velocity.
